T1: Cyno Cadherin-19 (cynomologous monkey (Macaca …, UniProt Q9H159 44-772 (human entry)))
T1 construct: also called cynomologous monkey CDH-19
T1 chain: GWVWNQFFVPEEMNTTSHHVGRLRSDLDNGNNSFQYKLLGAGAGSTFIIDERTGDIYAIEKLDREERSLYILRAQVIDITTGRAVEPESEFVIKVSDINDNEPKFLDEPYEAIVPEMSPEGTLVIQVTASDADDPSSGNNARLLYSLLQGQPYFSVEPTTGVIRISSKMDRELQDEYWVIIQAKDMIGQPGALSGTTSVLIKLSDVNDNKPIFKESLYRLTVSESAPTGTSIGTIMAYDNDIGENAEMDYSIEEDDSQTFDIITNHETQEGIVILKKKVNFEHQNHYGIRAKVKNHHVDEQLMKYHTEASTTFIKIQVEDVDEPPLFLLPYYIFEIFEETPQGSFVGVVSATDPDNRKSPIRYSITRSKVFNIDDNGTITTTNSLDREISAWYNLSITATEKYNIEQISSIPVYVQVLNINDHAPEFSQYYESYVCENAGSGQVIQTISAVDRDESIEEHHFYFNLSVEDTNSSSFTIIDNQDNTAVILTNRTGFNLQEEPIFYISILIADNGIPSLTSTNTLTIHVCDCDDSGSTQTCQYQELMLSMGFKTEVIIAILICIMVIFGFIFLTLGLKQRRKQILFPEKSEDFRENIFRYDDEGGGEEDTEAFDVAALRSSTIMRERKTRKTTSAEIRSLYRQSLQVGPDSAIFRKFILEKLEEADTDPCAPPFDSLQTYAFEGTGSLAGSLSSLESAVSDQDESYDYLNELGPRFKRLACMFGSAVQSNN

T2: raCDH19(1-43)::FLAG::raCDH19(44-770) (construct W, Ra EC1-5) (rat)
T2 construct: leader (1-43 of the entry) left out; also called rat Cadherin19
T2 chain: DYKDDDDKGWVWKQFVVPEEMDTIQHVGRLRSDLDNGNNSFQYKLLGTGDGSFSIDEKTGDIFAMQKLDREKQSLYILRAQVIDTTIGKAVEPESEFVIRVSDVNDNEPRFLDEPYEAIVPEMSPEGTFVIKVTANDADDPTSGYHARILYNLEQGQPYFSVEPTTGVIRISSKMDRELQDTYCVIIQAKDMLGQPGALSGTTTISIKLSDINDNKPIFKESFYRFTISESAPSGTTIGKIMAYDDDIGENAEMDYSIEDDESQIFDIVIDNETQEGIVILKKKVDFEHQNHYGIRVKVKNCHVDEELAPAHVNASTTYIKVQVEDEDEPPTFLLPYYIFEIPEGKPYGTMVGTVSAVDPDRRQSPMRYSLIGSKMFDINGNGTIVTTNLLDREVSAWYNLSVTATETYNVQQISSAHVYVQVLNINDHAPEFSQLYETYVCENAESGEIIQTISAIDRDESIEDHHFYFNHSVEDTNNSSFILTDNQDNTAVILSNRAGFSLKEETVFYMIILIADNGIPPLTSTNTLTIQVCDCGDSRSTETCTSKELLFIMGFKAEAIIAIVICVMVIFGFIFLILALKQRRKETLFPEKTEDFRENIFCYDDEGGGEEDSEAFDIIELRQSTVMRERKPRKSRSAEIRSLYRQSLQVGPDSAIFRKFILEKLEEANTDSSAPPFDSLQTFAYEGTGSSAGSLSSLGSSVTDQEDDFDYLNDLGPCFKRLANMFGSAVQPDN

T3: rhCDH19(1-43)::FLAG::rhCDH19(44-772) (construct P, Rh EC1-5) (rhesus macaque, UniProt Q9H159 44-772 (human entry))
T3 construct: leader (1-43 of the entry) left out; also called rhesus macaque Cadherin19
T3 chain: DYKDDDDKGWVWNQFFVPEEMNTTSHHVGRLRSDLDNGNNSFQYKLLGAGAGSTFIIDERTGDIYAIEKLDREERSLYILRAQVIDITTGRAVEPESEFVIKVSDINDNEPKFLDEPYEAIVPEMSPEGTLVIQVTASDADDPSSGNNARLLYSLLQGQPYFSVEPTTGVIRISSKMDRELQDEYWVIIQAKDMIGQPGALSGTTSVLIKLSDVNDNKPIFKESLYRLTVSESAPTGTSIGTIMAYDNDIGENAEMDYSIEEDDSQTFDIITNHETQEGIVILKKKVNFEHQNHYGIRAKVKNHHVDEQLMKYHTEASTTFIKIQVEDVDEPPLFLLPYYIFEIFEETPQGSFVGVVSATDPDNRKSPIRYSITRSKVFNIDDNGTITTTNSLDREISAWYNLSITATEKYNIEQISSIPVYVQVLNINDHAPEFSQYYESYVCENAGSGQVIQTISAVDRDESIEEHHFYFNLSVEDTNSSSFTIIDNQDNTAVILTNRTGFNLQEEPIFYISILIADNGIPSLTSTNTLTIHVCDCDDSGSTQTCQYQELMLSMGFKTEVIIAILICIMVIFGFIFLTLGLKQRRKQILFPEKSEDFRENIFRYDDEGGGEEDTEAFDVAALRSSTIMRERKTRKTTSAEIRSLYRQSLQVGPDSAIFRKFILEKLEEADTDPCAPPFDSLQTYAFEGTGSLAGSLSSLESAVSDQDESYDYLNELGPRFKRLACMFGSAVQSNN


Legend:
[1] = molecular target: T1, Cyno Cadherin-19; assay: FACS, recombinant cynomologous CDH-19
[2] = molecular target: T2, raCDH19(1-43)::FLAG::raCDH19(44-770) …; assay: flow cytometry, transfected 293T cells, 2 mM CaCl2;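 note: antibody binding read out as cell-bound Alexa647 label signal, with mock-transfected cells as controls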
Protocol: (§1) The following binding assay was completed in presence of 2 mM CaCl₂). […] Cells were then washed one time and the amount of cell associated Alexa647-labelled Ab was quantitated by flow cytometry. The experiments included mock transfected controls.

[3] = molecular target: T3, rhCDH19(1-43)::FLAG::rhCDH19(44-772) …; assay: flow cytometry, transfected 293T cells, 2 mM CaCl2;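 note: antibody binding read out as cell-bound Alexa647 label signal, with mock-transfected cells as controls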
Protocol: as §1

[4] = molecular target: T4, Human Cadherin-19 (human, UniProt Q9H159 44-772); assay: FACS, endogenous CDH-19 on CHL-1 and Colo699 tumor cells
T4 construct: also called CDH19; huCDH19
Protocol: FACS binding assays were performed to evaluate the binding of the anti-Cadherin-19 receptor specific antibodies to endogenous Cadherin-19 receptor expressed on the CHL-1 tumor cell lines.
FACs assays were performed by incubating hybridoma supernatants with 10,000 to 25,000 cells in PBS/2% Fetal bovine serum/2 mM Calcium Chloride at 4° C. for one hour followed by two washes with PBS/2% Fetal bovine serum/2 mM Calcium Chloride. Cells were then treated with florochrome-labeled secondary antibodies at 4° C. followed by one wash. The cells were resuspended in 50 μl of PBS/2% FBS and antibody binding was analyzed using a FACSCalibur™ instrument.

[5] = molecular target: T5, huCDH19(44-141)::muCDH19(140-770) with Flag tag (construct B, Hu EC1) (human/mouse chimera); assay: flow cytometry, transfected 293T cells
T5 construct: leader left out; the entry starts at residue 44; also called C137897
Description: (§2) The experiment included assaying the anti-CDH19 antibodies against mouse Cadherin19 to determine suitability for binning on these human/mouse chimeras.

[6] = molecular target: T6, huCDH19(44-249)::muCDH19(248-770) with Flag tag (construct C, Hu EC1-2) (human/mouse chimera); assay: flow cytometry, transfected 293T cells
T6 construct: leader left out; the entry starts at residue 44; also called C137896
Description: as §2

Binder | binding result [1] | binding result [2] | binding result [3] | binding result [4] | binding result [5] | binding result [6]
anti-CDH19 antibody 2G6 (Ab ID 13588) (antibody, human IgG1, lambda, V domains shown, Bin 4) VH: QVQLVESGGGVVQPGRSLRLSCAASGFTFSSYGMHWVRQAPGKGLEWVAFIWYDGSNKYYADSVKDRFTISRDNSKNTLYLQMKSLRAEDTAVYYCARRAGIIGTIGYYYGMDVWGQGTTVTVSS VL: SYELTQPPSVSVSPGQTASITCSGDRLGEKYTCWYQQRPGQSPLLVIYQDTKRPSGIPERFSGSNSGNTATLTISGTQAMDEADYYCQAWDSSTVVFGGGTKLTVLG | binds | binds | binds | binds | binds | binds
hu anti-<huCDH19> 23A10.3 (1-474)(L92Q) VH::huIgG1z + 23A10.3 (1-231)(C42S) VL::huLLC-C2 (Ab ID 14077) (antibody, V domains shown, Engineered variant of 23A10; the entries already carry the changes; Bin 4) VH: QVQLVESGGGVVQPGRSLRLSCAASGFTFSRYGIHWVRQAPGKGLEWVAVIWYDGSNKYYADSVKGRFTISRDNSKNTLYLQMNSLRAEDSAVYYCARRAGIPGTTGYYYGMDVWGQGTTVTVSS VL: SYELTQPPSVSVSPGQTASITCSGDRLGEKYVSWYQQKPGQSPILVIYQDNKWPSGIPERFSGSNSGNTATLTISGTQAMDEADYYCQAWDSSTVVFGGGTKLTVLG | – | binds | binds | – | – | –
anti-CDH19 antibody 4A2 (Ab ID 13592) (antibody, human IgG1, kappa, V domains shown, Bin 4) VH: QVQLQESGPGLVKPSQTLSLTCTVSGGSISSSGYYWSWIRQHPGKGLEWIGYIYYTGSAYYNPSLKSRVTISVDTSKNQFSLKLSSVTAADTAVYYCARDGSSGWYFQYWGQGTLVTVSS VL: EIVLTQSPGTLSLSPGERATLSCRASRNISSSYLAWYQQKPGQAPRLLIYGPSSRATGIPDRFSGSGSGTDFTLTISRLEPEDFTVYYCQQYGSSFTFGPGTKVDIKR | binds | – | binds | – | – | –
hu anti-<huCDH19> 25F8.1 (1-469)(F90Y) VH::huIgG1z + 25F8.1 (1-235)(K45Q,S102A,D111E) VL::huLLC-C2 (Ab ID 14096) (antibody, V domains shown, Engineered variant of 25F8; the entries already carry the changes; Bin 2) VH: QVQLVQSGAEVKKPGASVKVSCKASGYTFTSYYIHWVRQAPGQGLEWMGIINPSGGSTRYAQKFQGRVTMTRDTSTSTVYMELSSLRSEDTAVYYCARGGIQLWLHFDYWGQGTLVTVSS VL: not shown | – | no binding (tested: 5 ug/ml) | binds | – | – | –

The remaining lines, values ahead:

binding result [1] | binding result [2] | binding result [3] | binding result [4] | binding result [5] | binding result [6] | Binder
binds | binds | binds | binds | – | – | hu anti-<huCDH19> 4B10 (Ab ID 13590) (antibody, V domains shown, huIgG1z / huKLC; Bin 4) VH: QVQLVESGGGVVQPGRSLRLSCAASGFTFSSYDMHWVRQAPGKGLEWVAVISYDGTNEYYADSVKGRFTISRDTSKNTLYLQMNSLRAEDTAVYYCARERYFDWSFDYWGQGTLVSVSS VL: EIVLTQSPGTLSLSPGERATLSCRASQSVSNTYLAWYHQRPGQAPRLLIYGASSRATGIPDRFSGSGSGTDFALTISSLEPEDFAVYYCQQYSNSWTFGQGTKVEIKR
binds | no binding (tested: 5 ug/ml) | binds | binds | binds | binds | hu anti-<huCDH19> 4A9 (Ab ID 13589) (antibody, human IgG1, lambda, V domains shown, huIgG1z / huLLC-C1; Bin 1) VH: QVQLQESGPGLVKPSETLSLTCTVSGGSISGYYWSWIRQPPGKGLEWFAYFSYSGSTNYNPSLKSRVTLSVDTSKNQFSLKLSSVTAADTAVYYCARNWAFHFDFWGQGTLVTVSS VL: QSVLTQPPSVSGAPGQRVTISCTGSSSNIGTGYAVHWYQQFPGTAPKLLIYGNNNRPSGVPDRFSGSKSGTSASLAITGLQAEDEADYYCQSYDSRLSGWVFGGGTKLTVLG
binds | no binding (tested: 5 ug/ml) | binds | binds | binds | binds | hu anti-<huCDH19> 26D1.1 (Ab ID 13882) (antibody, human IgG1, lambda, V domains shown, huIgG1z / huLLC-C2; Bin 2) VH: QVQLVQSGAEVKKPGASVKVSCKASRYTFTSYYMSWVRQAPGQGLEWMGIIHPSGGDTTYAQKFQGRVTMTGDTSTSTVYMELSSLRSEDTAVYYCARGGIKLWLHFDYWGQGTLVTVSS VL: not shown

— patent publication US20220127354A1 (Amgen, published 2022)
